Reference: article PMC4071823, “Gamma-secretase subunits associate in intracellular membrane compartments in Arabidopsis thaliana” (Journal of Experimental Botany, 2014)

B1: AtPEN-2–GFP (natural protein, Arabidopsis thaliana, UniProt Q9FY84 1-146, looked up)
chain: MEATRSDDPSLNPIRNRNPNPNPNPNPLSTIISSAQVWPTIDGPLGLTEEASVDYARRFYKFGFALLPWLWFVNCFYFWPVLRHSRAFPQIRNYVVRSAIGFSVFTALLSAWALTFSIGGEQLFGPLYDKLVMYNVADRLGLSGLA
notes: Arabidopsis thaliana PEN-2 (AtPEN-2, At5g09310); FLIM-FRET donor; also called presenilin enhancer 2; source: A. thaliana leaf mesophyll protoplasts, transiently transfected (pSITE vector), in living cells; not shown: eGFP, C-terminal, kept
B2: AtNCT–GFP (natural protein, Arabidopsis thaliana, UniProt Q8GUM5 29-676, looked up)
chain: DEITSIESVPDLQKLMYVAVDGFPCVRLLNLSGEIGCSNPGINKVVAPIIKLKDVKDLVQPHTILVTADEMEDFFTRVSTDLSFASKIGGVLVESGSNFQQKLKGFSPDKRFPQAQFSPYENVEYKWNSAASSIMWRNYNFPVYLLSESGISAVHEILSKKKMKHGTYTSDVAEFNMVMETTKAGTHNSEACLQEGTCLPLGGYSVWSSLPPISVSSSNNRKPVVLTVASMDTASFFRDKSFGADSPISGLVALLGAVDALSRVDGISNLKKQLVFLVLTGETWGYLGSRRFLHELDLHSDAVAGLSNTSIETVLEIGSVGKGLSGGINTFFAHKTRVSSVTNMTLDALKIAQDSLASKNIKILSADTANPGIPPSSLMAFMRKNPQTSAVVLEDFDTNFVNKFYHSHLDDLSNINSSSVVAAASVVARTLYILASDNKDTSNSALGSIHVNASFVEELLTCLLACEPGLSCNLVKDYISPTNTCPGNYAGVILGEPSSKPYLGYVGDVSRFLWNFLADKTSVQKGNTTSVCSKGVCSKTDEVCIKAESNKEGTCVVSTTRYVPAYSTRLKYNDGAWTILPQNSSDSMGMVDPVWTESNWDTLRVHVYTVQHSAYDNAVLVAGITVTTLAYIGILAAKSIITKALKQD
notes: Arabidopsis thaliana nicastrin (AtNCT, At3g52640); FLIM-FRET donor; also called nicastrin; source: A. thaliana leaf mesophyll protoplasts, transiently transfected (pSITE vector), in living cells; not shown: eGFP, C-terminal, kept
B3: AtPS2–GFP (natural protein, Arabidopsis thaliana, UniProt Q9SIK7 1-397, looked up)
chain: MDRNQRPRSILDSLGEELIAILTPVSICMFTVVLLVCILNSDPSSSSASFSSIATAAYSESDSDSSWDKFVGALLNSVVFVAAITVATFVLVLLFYLRCVKFLKFYMGFSAFIVLGNLGGEILVLLIDRFRFPIDSITFLILLFNFSVVGVFAVFMSKFSILITQGYLVWIGVLVAYFFTLLPEWTTWVLLVALALYDIAAVLLPVGPLRLLVEMAISRDEDIPALVYEARPVIRNDSRSVQRRVWREQRSSQNNANRNEVRVVESAEVEEEHVGSSERAEISVPLIDRRPEQAENSETFLEGIGLGSSGAIKLGLGDFIFYSVLVGRAAMYDLMTVYACYLAIIAGLGITLMLLSVYQKALPALPVSIMLGVVFYFLARLLLEVFVVQCSSNLVMF
notes: Arabidopsis thaliana presenilin 2 (AtPS2, At2g29900); cDNA made from leaf RNA; FLIM-FRET donor; also called presenilin 2; AtAtPS2–GFP; source: A. thaliana leaf mesophyll protoplasts, transiently transfected (pSITE vector), in living cells; not shown: eGFP, C-terminal, kept
B4: AtPS1–GFP (natural protein, Arabidopsis thaliana, UniProt O64668 1-453, looked up)
chain: MESSILDSLGVEIIGVMAPVSICMFLVVLLTYSLSVTSDPQIRSAANLIYIENPSDSTTVKLEGSLANAIVFVVLIAAVTFILVLLFYYNFTNFLKHYMRFSAFFVLGTMGGAIFLSIIQHFSIPVDSITCFILLFNFTILGTLSVFAGGIPIVLRQCYMVVMGIVVAAWFTKLPEWTTWFILVALALYDLVAVLAPGGPLKLLVELASSRDEELPAMVYEARPTVSSGNQRRNRGSSLRALVGGGGVSDSGSVELQAVRNHDVNQLGRENSHNMDYNAIAVRDIDNVDDGIGNGSRGGLERSPLVGSPSASEHSTSVGTRGNMEDRESVMDEEMSPLVELMGWGDNREEARGLEESDNVVDISNRGIKLGLGDFIFYSVLVGRAAMYDLMTVYACYLAIISGLGCTLILLSVYNRALPALPISIMLGVVFYFLTRLLMEPFVVGVTTNLMMF
notes: Arabidopsis thaliana presenilin 1 (AtPS1, At1g08700); FLIM-FRET donor; also called presenilin 1; source: A. thaliana leaf mesophyll protoplasts, transiently transfected (pSITE vector), in living cells; not shown: eGFP, C-terminal, kept

How the values were obtained:
Test in all cases: FRET or BRET; FLIM-FRET in living A. thaliana leaf mesophyll protoplasts that co-express the two fusions; eGFP donor, mRFP acceptor; E=1−τDA/τD×100%; FRET efficiency above the threshold of 5% (free eGFP with free mRFP) taken as putative positive interaction
Conditions in all cases: partners not purified
[1] = target: T1, AtNCT–RFP (Arabidopsis thaliana, UniProt Q8GUM5 29-676)
T1 construct: Arabidopsis thaliana nicastrin (AtNCT, At3g52640); FLIM-FRET acceptor; also called nicastrin; source: A. thaliana leaf mesophyll protoplasts, transiently transfected (pSITE vector), in living cells; not shown: mRFP, C-terminal, kept
T1 sequence (looked up): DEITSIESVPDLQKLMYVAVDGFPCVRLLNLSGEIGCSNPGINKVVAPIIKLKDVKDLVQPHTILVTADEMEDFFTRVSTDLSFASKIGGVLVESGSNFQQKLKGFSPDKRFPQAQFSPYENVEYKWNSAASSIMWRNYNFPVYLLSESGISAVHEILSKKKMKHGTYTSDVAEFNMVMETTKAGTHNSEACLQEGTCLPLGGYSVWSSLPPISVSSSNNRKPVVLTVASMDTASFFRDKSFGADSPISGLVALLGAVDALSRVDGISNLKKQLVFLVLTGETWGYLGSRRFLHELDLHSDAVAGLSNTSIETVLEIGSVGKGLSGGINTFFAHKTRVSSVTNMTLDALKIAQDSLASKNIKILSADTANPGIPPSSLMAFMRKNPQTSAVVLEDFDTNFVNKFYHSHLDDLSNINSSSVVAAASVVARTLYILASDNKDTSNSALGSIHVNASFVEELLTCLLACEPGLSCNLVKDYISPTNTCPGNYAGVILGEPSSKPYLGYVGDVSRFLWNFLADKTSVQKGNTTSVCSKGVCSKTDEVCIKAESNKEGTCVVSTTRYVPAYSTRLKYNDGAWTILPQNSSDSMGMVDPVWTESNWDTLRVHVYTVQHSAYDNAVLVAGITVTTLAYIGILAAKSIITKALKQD

[2] = target: T2, AtAPH-1–RFP (Arabidopsis thaliana, UniProt Q8L9G7 1-250)
T2 construct: Arabidopsis thaliana APH-1 (AtAPH-1, At2g31440); FLIM-FRET acceptor; also called anterior pharynx-defective 1; source: A. thaliana leaf mesophyll protoplasts, transiently transfected (pSITE vector), in living cells; not shown: mRFP, C-terminal, kept
T2 sequence (Q8L9G7 whole entry): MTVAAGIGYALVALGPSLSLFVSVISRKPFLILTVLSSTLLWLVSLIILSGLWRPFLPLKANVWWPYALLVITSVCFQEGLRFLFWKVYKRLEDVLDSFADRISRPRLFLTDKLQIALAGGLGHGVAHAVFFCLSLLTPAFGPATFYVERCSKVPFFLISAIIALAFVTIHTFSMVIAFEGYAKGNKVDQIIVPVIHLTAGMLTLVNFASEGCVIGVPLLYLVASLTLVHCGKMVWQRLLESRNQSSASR

[3] = target: T3, AtPEN-2–RFP (Arabidopsis thaliana, UniProt Q9FY84 1-146)
T3 construct: Arabidopsis thaliana PEN-2 (AtPEN-2, At5g09310); FLIM-FRET acceptor; also called presenilin enhancer 2; source: A. thaliana leaf mesophyll protoplasts, transiently transfected (pSITE vector), in living cells; not shown: mRFP, C-terminal, kept
T3 sequence (looked up): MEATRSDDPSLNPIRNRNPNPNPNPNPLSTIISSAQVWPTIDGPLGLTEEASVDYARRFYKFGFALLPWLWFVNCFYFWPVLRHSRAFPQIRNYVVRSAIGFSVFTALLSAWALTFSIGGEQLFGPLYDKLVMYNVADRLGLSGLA

Row | Binder | FRET efficiency, E_(FRET) [1] [%] | FRET efficiency, E_(FRET) [2] [%] | FRET efficiency, E_(FRET) [3] [%]
1 | B1 | 11 | – | –
2 | B2 | – | 14 | –
3 | B3 | – | 20 | 32
4 | B4 | 19 | 19 | 24
